# Data: patent publication US20090005253A1, “Double Hybrid System Based on Gene Silencing by Transcriptional Interference” (AVENTIS PHARMA S.A., priority 2004, published 2009)
# B1: fusion protein AD-Fe65 (GAL4 activation domain fused to amino acids 152 to 708 of Fe65) (protein)
# chain: MDKAELIPEPPKKKRKVELGTAANFNQSGNIADSSLSFTFTNSSNGPNLITTQTNSQALSQPIASSNVHDNFMNNEITASKIDDGNNSKPLSPGWTDQTAYNAFGITTGMFNTTTMDDVYNYLFDDEDTPPNPKKEIEFKAAGEAEEEEEDDDDEEEEEDLSSPPGLPEPLESVEAPPRPQALTDGPREHSKSASLLFGMRNSAASDEDSSWATLSQGSPSYGSPEDTDSFWNPNAFETDSDLPAGWMRVQDTSGTYYWHIPTGTTQWEPPGRASPSQGSSPQEESQLTWTGFAHGEGFEDGEFWKDEPSDEAPMELGLKEPEEGTLTFPAQSLSPEPLPQEEEKLPPRNTNPGIKCFAVRSLGWVEMTEEELAPGRSSVAVNNCIRQLSYHKNNLHDPMSGGWGEGKDLLLQLEDETLKLVEPQSQALLHAQPIISIRVWGVGRDSGRDFAYVARDKLTQMLKCHVFRCEAPAKNIATSLHEICSKIMAERRNARCLVNGLSLDHSKLVDVPFQVEFPAPKNELVQKFQVYYLGNVPVAKPVGVDVINGALESVLSSSSREQWTPSHVSVAPATLTILHQQTEAVLGECRVRFLSFLAVGRDVHTFAFIMAAGPASFCCHMFWCEPNAASLSEAVQAACMLRYQKCLDARSQASTSCLPAPPAESVARRVGWTVRRGVQSLWGSLKPKRLGAHTP
# Biological target: fusion protein DBD-AppCt (GAL4 DBD fused to amino acids 650 to 695 of App) (Saccharomyces cerevisiae) (UniProt P04386)
# Experiment: cell-based or functional assay
binder,measurement,value
B1,3-AT concentration at which differences in cell growth are detected,> 15 mM
same,growth of strain yRB49 (UI) plated on solid medium with 3-AT,1 mM
